# According to the supplement of paper PMC10126150:
# ± gives the standard deviation of the averaged measurements.
# System: ATP
# Experiment: switch fluorescence ratio, 500 uM ATP over buffer (Cy3 cluster intensity, sum of 5 cycles each) (fold (ratio)); higher = stronger signal-on switching upon ATP binding; sequences stand for … in TCGTCGGCAGCGTCAGATGTGTATAAGAGACAGTTTTTTTTTTTTTTTTTTTTTTTTT…TC
# Conditions: aptamer strand: ATP DNA aptamer (quencher-CACCTGGGGGAGTATTGCGGAGGAAGG + anchor), 100 nM annealed; ATP concentration: 500 uM
# Summary of the method: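 Switching-strand clusters labelled with Cy3 on a modified Illumina MiSeq flow-cell were annealed to 100 nM quencher-labelled ATP aptamer, imaged in selection buffer, and re-imaged after 15 min with 500 uM ATP at 22 °C. This was done over five cycles with NaOH stripping and re-annealing in between. The fluorescence ratio is summed target-cycle over summed buffer-cycle Cy3 intensity per cluster, averaged per switch-domain sequence, excluding clusters outside 100-1000 RFU.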
# 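Also: ATP exposure 15 min at 22 °C before imaging.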
row,Sequence,switch fluorescence ratio
1,GTGATATAGG,1.03 ± 0.041
2,AGATTCCGCT,1.108 ± 0.011
3,GAGGGGGAGG,0.982 ± 0.019
4,AGTAGTTTTG,0.98 ± 0.014
5,CTTTCTAAGG,1.02 ± 0.036
6,CGATAGATGA,0.993 ± 0.018
7,TTGCTGTTAC,1.15 ± 0.15
8,CTTATGATTT,0.998 ± 0.033
9,TACTGTTTTT,0.9832 ± 0.0056
10,GTTTTTGTAA,1.02 ± 0.052
11,TTAGAATTAA,0.9724 ± 0.0063
12,GATGCAGGCC,0.892 ± 0.017
13,GCGGTTGTTC,0.995 ± 0.034
14,CACGAGATAA,1.11 ± 0.079
15,TACTGGTCCG,1.08 ± 0.074
16,GGGATAGGGA,1.01 ± 0.045
17,ATACTTAGTG,0.986 ± 0.019
18,GATGAAAAAT,0.975 ± 0.024
19,GATGAATCGG,0.973 ± 0.012
20,GAAGGCGGGA,1.03 ± 0.097
21,TATGAGGTTG,1 ± 0.03
22,CTGAGGCGCC,1.01 ± 0.056
23,TAAATTGCGG,0.966 ± 0.013
24,GGTAAATAAG,0.961 ± 0.018
25,CGGCGGCTTC,1.01 ± 0.028

row,Sequence,switch fluorescence ratio
1,TTGAAAAAGT,0.992 ± 0.018
2,GACTACAGTG,1.1 ± 0.019
3,TTGCTATGGG,0.978 ± 0.017
4,CTAAAAGGGG,1.02 ± 0.021
5,AAAGGGGCTG,0.98 ± 0.061
6,GCTCCGATAG,5.2 ± 0.94
7,CAGCCAAAT,1.043 ± 0.01
8,ACCATGCCGG,1 ± 0.077
9,CACTTTCGT,0.959 ± 0.029
10,CATATGCGTC,1.02 ± 0.035
11,CGACAATGTA,1.17 ± 0.018
12,GTTGGGGGCA,0.968 ± 0.049
13,AGTATTTATT,1 ± 0.03
14,TTTGTGGGAT,0.998 ± 0.043
15,ACTTATTAAT,1.03 ± 0.027
16,AGGGGGTGCT,0.997 ± 0.028
17,CGAGCAGTTA,1.19 ± 0.074
18,TTATCAGGGG,1.08 ± 0.12
19,GGTACGGTAA,1.11 ± 0.038
20,AGTTGTTTTT,0.983 ± 0.025
21,AAAGGATGGG,1 ± 0.016
22,CAATTATATG,0.9961 ± 0.0071
23,GCTTTATTTA,0.992 ± 0.053
24,CACTTAGGGC,1.06 ± 0.024
25,ATATGCGTAT,1.01 ± 0.02

row,Sequence,switch fluorescence ratio
1,TAGTCATTGA,1.012 ± 0.0021
2,GAGTACTCGT,1.03 ± 0.034
3,CAGGAGTCGT,1 ± 0.038
4,CGATGAGTTT,1.01 ± 0.033
5,TAAAATGGGG,1 ± 0.022
6,TTATCGTGCG,0.9661 ± 0.0079
7,AGGGGAGTAG,0.99 ± 0.022
8,GTGTGGGTTC,0.982 ± 0.012
9,ATCTGGGAGT,1.014 ± 0.00032
10,AAAGAACGGA,1.06 ± 0.095
11,CGTGACTGGT,0.9683 ± 0.005
12,AGAGGCAGCT,1.03 ± 0.046
13,ATGGAATAT,0.969 ± 0.038
14,AGTTTTTGTT,0.987 ± 0.024
15,AGTCTCTGGG,0.974 ± 0.024
16,AAGGGCGTCA,1.007 ± 0.0022
17,CGAGTCGCGA,1.04 ± 0.062
18,ACCCGAGCAT,1.79 ± 0.12
19,AACGAAAGGC,1.19 ± 0.012
20,GTGGGGGGTA,1 ± 0.031
21,GGTCACGGGT,0.981 ± 0.031
22,GGGCGTACGG,1.06 ± 0.045
23,GGGCAAGGGT,0.977 ± 0.029
24,TCGGAGGAGC,1.05 ± 0.026
25,AAGTTTGTT,0.983 ± 0.027

row,Sequence,switch fluorescence ratio
1,GAGGAAGGGA,1.01 ± 0.017
2,TTATTTCAAG,1.01 ± 0.064
3,CTGGGACAGT,0.995 ± 0.034
4,TTGTTTCATG,1.01 ± 0.025
5,GGCAATGAAG,1.03 ± 0.049
6,TGATAGGTCT,0.986 ± 0.03
7,AAGTCCTTCT,1.07 ± 0.036
8,AGGGCGGCTT,1 ± 0.032
9,CTTGTTGCCG,1.01 ± 0.013
10,CTTTTTGAGG,0.983 ± 0.048
11,TTGACTTGTC,0.9991 ± 0.0069
12,CCTCGATGTA,1.08 ± 0.027
13,TCTGGCGCCG,1.03 ± 0.017
14,AGGTATTTGA,0.984 ± 0.054
15,ACAAGATGGG,1.09 ± 0.082
16,TTGGTTTTCC,1.01 ± 0.028
17,AGATAGAGTG,0.996 ± 0.02
18,TAAGTGGAAG,1.01 ± 0.029
19,TGAAGCATTT,1.17 ± 0.14
20,TAGCTGCAAA,1.05 ± 0.024
21,TATAGAGATG,1.01 ± 0.036
22,CCATGTGGG,1.02 ± 0.013
23,TTATACGGCG,1.06 ± 0.0059
24,TTAGAGTTTA,0.975 ± 0.014
25,ATACGAGTTA,1.02 ± 0.021
